Substrate: C[N+](C)(C)C[C@H](O)CC(=O)[O-]
Experiment: Tracer flux transport measurement in Xenopus laevis oocytes injected with cRNA comprising SEQ ID NO: 4
Format: cell-based, human
Conditions: other: concentration dependency of L-carnitine transport, Michaelis-Menten, uptake measured for 1 hour, FIG. 2
Description: The transport measurements of radioactively labeled compounds were executed using Xenopus laevis oocytes in the so-called “tracer flux method”, wherein the transport rate of substrates across the oocyte membrane into the cytosol is determined.
A Xenopus laevis oocyte was injected with a cRNA molecule comprising SEQ ID NO: 4.
Injected oocytes were kept in the culture medium ORi comprising gentamycin (50 mg/L) at 18° C. until the measurement of substrate uptake. Injured, acutely altered or later heavily damaged cells were discarded.
After 72 hours the oocyte was used for screening for a carnitine transporter agonist or antagonist. […]
The oocytes were washed four times in 15 ml ice cold ORi. […] The radioactivity of the lysates was determined in a liquid scintillation counter comprising a correction for the luminescence and an external standard. Each vial was counted for 5 minutes. […]
For the determination of concentration-dependent substrate uptake serial dilutions of the investigated substrate were prepared and the radioactivity was distributed, such that in each reaction mixture between 10000 and 20000 cpm were counted in the supernatant. For the KM determination the substrate uptake was measured for 1 hour. […] The transport rates were calculated and graphically plotted against the substrate concentration and adapted mathematically according to the Michaelis-Menten equation.

B1: carnitine transporter comprising the amino acid sequence SEQ ID NO: 1 (Homo sapiens) (protein)
chain: MVRLVLPNPGLDARIPSLAELETIEQEEASSRPKWDNKAQYMLTCLGFCVGLGNVWRFPYLCQSHGGGAFMIPFLILLVLEGIPLLYLEFAIGQRLRRGSLGVWSSIHPALKGLGLASMLTSFMVGLYYNTIISWIMWYLFNSFQEPLPWSDCPLNENQTGYVDECARSSPVDYFWYRETLNISTSISDSGSIQWWMLLCLACAWSVLYMCTIRGIETTGKAVYITSTLPYVVLTIFLIRGLTLKGATNGIVFLFTPNVTELAQPDTWLDAGAQVFFSFSLAFGGLISFSSYNSVHNNCEKDSVIVSIINGFTSVYVAIVVYSVIGFRATQRYDDCFSTNILTLINGFDLPEGNVTQENFVDMQQRCNASDPAAYAQLVFQTCDINAFLSEAVEGTGLAFIVFTEAITKMPLSPLWSVLFFIMLFCLGLSSMFGNMEGVVVPLQDLRVIPPKWPKEVLTGLICLGTFLIGFIFTLNSGQYWLSLLDSYAGSIPLLIIAFCEMFSVVYVYGVDRFNKDIEFMIGHKPNIFWQVTWRVVSPLLMLIIFLFFFVVEVSQELTYSIWDPGYEEFPKSQKISYPNWVYVVVVIVAGVPSLTIPGYAIYKLIRNHCQKPGDHQGLVSTLSTASMNGDLKY
notes: expressed in transfected cells; host or cells: Xenopus laevis oocytes injected with cRNA
  Km: 15 µM

Source: patent publication US7879563B2, “Method of screening for a carnitine transporter agonist or antagonist and its uses” (Sanofi-Aventis Deutschland GmbH, priority 2004, dated 2011)
